Measurements from US20230190867A1 (BIOINCEPT, published 2023).
No end group written: not given here.

Assays:
[1] = molecular target: T1, 14-3-3 protein beta/alpha (human, UniProt P31946 1-246); experiment: PIF-agarose affinity extraction, liver lysate column of Table 4
T1 sequence (looked up): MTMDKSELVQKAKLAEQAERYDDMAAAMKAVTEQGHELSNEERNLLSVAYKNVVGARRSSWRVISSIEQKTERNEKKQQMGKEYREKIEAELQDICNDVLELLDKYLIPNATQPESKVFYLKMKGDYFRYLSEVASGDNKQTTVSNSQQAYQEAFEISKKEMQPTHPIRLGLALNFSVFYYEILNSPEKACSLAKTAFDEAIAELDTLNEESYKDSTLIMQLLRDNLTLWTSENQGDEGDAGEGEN

14-3-3 protein eta = molecular target: T2, 14-3-3 protein eta (human, UniProt Q04917 2-246); experiment: as above
T2 sequence (looked up): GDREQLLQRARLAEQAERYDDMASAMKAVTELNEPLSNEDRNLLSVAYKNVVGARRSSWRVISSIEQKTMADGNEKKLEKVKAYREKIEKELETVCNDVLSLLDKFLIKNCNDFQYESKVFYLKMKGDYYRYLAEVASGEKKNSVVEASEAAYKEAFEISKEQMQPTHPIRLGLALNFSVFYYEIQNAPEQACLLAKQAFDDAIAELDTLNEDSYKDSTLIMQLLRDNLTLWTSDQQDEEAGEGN

14-3-3 protein gamma = molecular target: T3, 14-3-3 protein gamma (human, UniProt P61981 1-247); experiment: as above
T3 sequence (looked up): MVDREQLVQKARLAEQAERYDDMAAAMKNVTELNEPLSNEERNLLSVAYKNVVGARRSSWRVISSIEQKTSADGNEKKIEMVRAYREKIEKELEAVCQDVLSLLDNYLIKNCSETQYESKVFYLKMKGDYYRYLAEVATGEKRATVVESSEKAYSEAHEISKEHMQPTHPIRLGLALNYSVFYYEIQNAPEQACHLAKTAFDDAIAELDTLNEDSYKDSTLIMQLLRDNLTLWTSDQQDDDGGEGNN

14-3-3 protein theta = molecular target: T4, 14-3-3 protein theta (human, UniProt P27348 1-245); experiment: as above
T4 sequence (looked up): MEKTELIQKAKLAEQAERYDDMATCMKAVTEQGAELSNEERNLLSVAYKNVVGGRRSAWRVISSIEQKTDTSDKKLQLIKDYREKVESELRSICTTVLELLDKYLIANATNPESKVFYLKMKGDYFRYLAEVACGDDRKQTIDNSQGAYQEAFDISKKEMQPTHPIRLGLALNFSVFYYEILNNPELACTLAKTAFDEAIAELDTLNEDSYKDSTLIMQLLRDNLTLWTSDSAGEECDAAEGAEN

[2] = molecular target: T5, 14-3-3 protein zeta/delta (human, UniProt P63104 1-245); experiment: as above
T5 sequence (looked up): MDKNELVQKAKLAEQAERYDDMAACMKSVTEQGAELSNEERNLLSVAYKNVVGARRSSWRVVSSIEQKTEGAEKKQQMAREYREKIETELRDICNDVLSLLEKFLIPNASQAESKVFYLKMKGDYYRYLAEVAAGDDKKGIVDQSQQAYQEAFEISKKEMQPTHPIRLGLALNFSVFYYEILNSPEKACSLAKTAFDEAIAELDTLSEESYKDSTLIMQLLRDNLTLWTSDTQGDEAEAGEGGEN

[3] = molecular target: 40S ribosomal protein S3a (human, UniProt P61247 2-264); experiment: as above
[4] = molecular target: Acidic leucine-rich nuclear phosphoprotein 32 family Member A (human, UniProt P39687 1-249); experiment: as above
[5] = molecular target: Actin, alpha skeletal muscle (human, UniProt P68133 3-377); experiment: as above
Alpha-actinin-1 = Alpha-actinin-1 (human, UniProt P12814 1-892); experiment: as above
Annexin A2 = Annexin A2 (human, UniProt P07355 2-339); experiment: as above
[6] = molecular target: ATP synthase subunit beta, mitochondrial (human, UniProt P06576 48-529); experiment: as above
Cofilin-1 = Cofilin-1 (human, UniProt P23528 2-166); experiment: as above
Cytochrome P450 26A1 = molecular target: T6, Cytochrome P450 26A1 (human, UniProt O43174 1-497); experiment: as above
T6 sequence (looked up): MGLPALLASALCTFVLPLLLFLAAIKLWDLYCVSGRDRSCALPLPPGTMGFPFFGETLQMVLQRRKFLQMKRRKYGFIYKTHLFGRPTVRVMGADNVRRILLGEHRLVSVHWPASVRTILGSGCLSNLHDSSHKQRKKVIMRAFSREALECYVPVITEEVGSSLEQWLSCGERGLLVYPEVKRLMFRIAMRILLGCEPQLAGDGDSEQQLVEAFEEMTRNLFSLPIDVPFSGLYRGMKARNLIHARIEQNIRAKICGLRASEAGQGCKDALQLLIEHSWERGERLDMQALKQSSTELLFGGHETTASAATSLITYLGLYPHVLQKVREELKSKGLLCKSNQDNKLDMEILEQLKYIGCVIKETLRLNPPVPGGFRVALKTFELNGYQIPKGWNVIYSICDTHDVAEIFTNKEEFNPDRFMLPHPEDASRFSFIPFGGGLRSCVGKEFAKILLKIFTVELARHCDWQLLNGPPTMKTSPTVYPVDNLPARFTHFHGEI

[7] = molecular target: T7, D-3-phosphoglycerate dehydrogenase (human, UniProt O43175 2-533); experiment: as above
T7 sequence (looked up): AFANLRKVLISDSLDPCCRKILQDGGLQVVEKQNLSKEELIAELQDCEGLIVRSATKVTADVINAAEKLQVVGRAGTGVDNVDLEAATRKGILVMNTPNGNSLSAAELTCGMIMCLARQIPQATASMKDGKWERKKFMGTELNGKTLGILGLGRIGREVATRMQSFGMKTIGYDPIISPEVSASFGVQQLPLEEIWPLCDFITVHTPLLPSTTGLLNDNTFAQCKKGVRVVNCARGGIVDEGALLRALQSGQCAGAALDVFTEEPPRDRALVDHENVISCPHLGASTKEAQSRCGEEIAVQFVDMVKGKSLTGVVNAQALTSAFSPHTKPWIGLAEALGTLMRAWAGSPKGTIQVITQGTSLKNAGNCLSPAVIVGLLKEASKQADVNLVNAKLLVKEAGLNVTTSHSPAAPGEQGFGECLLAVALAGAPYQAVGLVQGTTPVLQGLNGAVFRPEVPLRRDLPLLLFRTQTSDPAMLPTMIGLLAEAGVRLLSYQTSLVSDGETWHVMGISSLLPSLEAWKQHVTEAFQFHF

[8] = molecular target: Eukaryotic initiation factor 4A-I (human, UniProt P60842 2-406); experiment: as above
[9] = molecular target: Isoform 2 of Heat shock protein HSP 90-alpha (human, UniProt P07900-2 1-854, limits assumed); experiment: as above
Isoform 2 of Protein SET = Isoform 2 of Protein SET (human, UniProt Q01105-2 2-277); experiment: as above
[10] = molecular target: Isoform 2 of Tropomyosin alpha-3 chain (human, UniProt P06753-2 2-248); experiment: as above
[11] = molecular target: Isoform 2 of Tropomyosin alpha-4 chain (human, UniProt P67936-2 1-284); experiment: as above
[12] = molecular target: Isoform 2 of Tropomyosin beta chain (human, UniProt P07951-2 1-284); experiment: as above
Isoform C of Lamin-A/C = molecular target: T8, Isoform C of Lamin-A/C (human, UniProt P02545-2 1-572); experiment: as above
T8 sequence (looked up): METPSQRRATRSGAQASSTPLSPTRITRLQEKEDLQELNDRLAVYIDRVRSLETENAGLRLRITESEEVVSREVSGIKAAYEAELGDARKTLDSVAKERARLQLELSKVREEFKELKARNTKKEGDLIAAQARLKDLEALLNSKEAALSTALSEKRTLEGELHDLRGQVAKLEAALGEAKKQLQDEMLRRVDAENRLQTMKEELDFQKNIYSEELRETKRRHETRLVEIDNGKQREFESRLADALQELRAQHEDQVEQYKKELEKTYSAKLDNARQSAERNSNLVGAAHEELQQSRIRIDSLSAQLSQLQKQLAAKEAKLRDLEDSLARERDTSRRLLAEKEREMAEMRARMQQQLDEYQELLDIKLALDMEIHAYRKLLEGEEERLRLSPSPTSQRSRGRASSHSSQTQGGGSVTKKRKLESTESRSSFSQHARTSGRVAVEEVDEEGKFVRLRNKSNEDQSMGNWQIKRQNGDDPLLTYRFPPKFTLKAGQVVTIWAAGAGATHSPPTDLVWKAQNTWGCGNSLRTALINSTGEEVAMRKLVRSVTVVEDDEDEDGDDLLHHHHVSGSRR

Nucleolin = Nucleolin (human, UniProt P19338 2-710); experiment: as above
PRDX4 = molecular target: T9, PRDX4 (human, UniProt Q13162 38-271); experiment: as above
T9 sequence (looked up): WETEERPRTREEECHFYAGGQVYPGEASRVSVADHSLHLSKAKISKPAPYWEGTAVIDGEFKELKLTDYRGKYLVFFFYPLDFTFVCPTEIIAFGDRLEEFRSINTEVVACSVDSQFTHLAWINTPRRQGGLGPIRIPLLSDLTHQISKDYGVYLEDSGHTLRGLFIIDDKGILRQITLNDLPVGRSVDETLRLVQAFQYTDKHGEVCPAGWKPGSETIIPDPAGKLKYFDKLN

[13] = molecular target: Serine/arginine-rich-splicing factor 1 (human, UniProt Q07955 2-248); experiment: as above
[14] = molecular target: T10, Serine/arginine-rich-splicing factor 2 (human, UniProt Q01130 2-221); experiment: as above
T10 sequence (looked up): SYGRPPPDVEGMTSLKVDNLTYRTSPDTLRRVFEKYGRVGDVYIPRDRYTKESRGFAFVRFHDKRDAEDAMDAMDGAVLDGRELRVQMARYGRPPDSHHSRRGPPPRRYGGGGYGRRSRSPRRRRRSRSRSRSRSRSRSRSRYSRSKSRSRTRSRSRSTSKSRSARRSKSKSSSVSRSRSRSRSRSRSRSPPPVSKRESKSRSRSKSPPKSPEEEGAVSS

Thioredoxin = molecular target: T11, Thioredoxin (human, UniProt P10599 2-105); experiment: as above
T11 sequence (looked up): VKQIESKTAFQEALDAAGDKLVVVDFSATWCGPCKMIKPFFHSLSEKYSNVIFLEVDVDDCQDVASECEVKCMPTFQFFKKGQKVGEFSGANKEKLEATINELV

[15] = molecular target: T12, Elongation factor 1-alpha 1 (human, UniProt P68104 2-462); experiment: PIF-agarose affinity extraction, liver lysate column of Table 4 (row 'Eef1a1')
T12 construct: also called Eef1a1
T12 sequence (looked up): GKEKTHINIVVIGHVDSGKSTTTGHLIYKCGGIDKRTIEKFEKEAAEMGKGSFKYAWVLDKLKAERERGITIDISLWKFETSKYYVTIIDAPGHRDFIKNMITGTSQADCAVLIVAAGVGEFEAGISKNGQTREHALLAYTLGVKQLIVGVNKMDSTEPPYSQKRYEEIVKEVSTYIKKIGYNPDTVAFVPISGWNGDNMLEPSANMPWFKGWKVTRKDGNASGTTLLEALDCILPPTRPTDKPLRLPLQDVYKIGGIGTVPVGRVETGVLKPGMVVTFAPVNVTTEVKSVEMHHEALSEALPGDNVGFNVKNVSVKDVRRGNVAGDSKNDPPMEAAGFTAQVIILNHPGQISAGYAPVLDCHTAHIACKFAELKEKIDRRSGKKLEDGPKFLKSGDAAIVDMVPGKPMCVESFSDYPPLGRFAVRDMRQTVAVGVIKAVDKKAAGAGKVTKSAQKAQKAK

Measured: binding result

B1: sPIF-1(15) (peptide)
peptide: MVRIKPGSANKPSDD
modifications: also: coupled to agarose support
notes: also called synthetic preimplantation factor
binds: all assays above
